Earlier results on one molecule are cited in US20240209047A1, “GROWTH FACTOR CONJUGATES” (priority 2021, published 2024).

The series concerns non-healing diabetic ulcers. The note with it: treated for 20 weeks or until complete wound closure; placebo 25%.

B1: PDGF: topical gel containing recombinant human PDGF-BB (Regranex®) (protein, UniProt P01127 82-190, looked up)
Platelet-derived growth …: SLGSLTIAEPAMIAECKTRTEVFEISRRLIDRTNANFLVWPPCVEVQRCSGCCNNRNVQCRPTQVQLRPVQVRKIEIVRKKPIFKKATVTLEDHLACKCETVAAARPVT
modifications: Platelet-derived growth factor subunit B topical gel (becaplermin)
As for B1, the patients healed is recorded as 48%.
